Numbered stars: 1 amine (or outer) side, 2 acyl side, 3 side chain; on linkers, the order of the positions; unused ones are H or OH. Square brackets hold non-standard residues; d marks the D form. Side chains are listed from the residue outwards. Ends that are not written are not given here. * marks the point of attachment. 4‑HPA = 4-hydroxyphenylacetic acid, O=C(Cc1ccc(O[*:3])cc1)[*:2]; C16 acyl = C16 fatty acyl group bound via a gamma-Glu spacer; γGlu = O=C(O)[C@H](CCC(=O)[*:2])N[*:1]; Palmitoyl = CCCCCCCCCCCCCCCC(=O)*

T1: GIP receptor (UniProt P48546 22-466, limits assumed)
T1 sequence (looked up): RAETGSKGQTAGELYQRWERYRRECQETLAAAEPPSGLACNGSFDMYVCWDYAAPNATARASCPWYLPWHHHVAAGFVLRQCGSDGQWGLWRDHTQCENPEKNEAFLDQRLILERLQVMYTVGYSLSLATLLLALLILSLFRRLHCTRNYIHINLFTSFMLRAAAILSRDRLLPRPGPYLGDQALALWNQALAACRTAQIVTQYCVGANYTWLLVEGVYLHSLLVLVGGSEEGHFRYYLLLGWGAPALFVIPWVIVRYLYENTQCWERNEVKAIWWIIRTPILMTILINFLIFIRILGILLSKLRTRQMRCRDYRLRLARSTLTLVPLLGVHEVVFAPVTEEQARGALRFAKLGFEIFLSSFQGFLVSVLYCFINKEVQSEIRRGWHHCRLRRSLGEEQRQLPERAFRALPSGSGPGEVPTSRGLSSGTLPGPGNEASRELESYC

B1: peptide of SEQ ID NO: 148 (peptide)
peptide: Ac-[dH]AEGTFTSDK([γGlu-Palmitoyl])SKYLDERAAQDFVQWLLEGGPSSGAPPPS-NH2
SMILES: CCCCCCCCCCCCCCCC(=O)N[C@@H](CCC(=O)NCCCC[C@H](NC(=O)[C@H](CC(=O)O)NC(=O)[C@H](CO)NC(=O)[C@@H](NC(=O)[C@H](Cc1ccccc1)NC(=O)[C@@H](NC(=O)CNC(=O)[C@H](CCC(=O)O)NC(=O)[C@H](C)NC(=O)[C@@H](Cc1c[nH]cn1)NC(C)=O)[C@@H](C)O)[C@@H](C)O)C(=O)N[C@@H](CO)C(=O)N[C@@H](CCCCN)C(=O)N[C@@H](Cc1ccc(O)cc1)C(=O)N[C@@H](CC(C)C)C(=O)N[C@@H](CC(=O)O)C(=O)N[C@@H](CCC(=O)O)C(=O)N[C@@H](CCCNC(=N)N)C(=O)N[C@@H](C)C(=O)N[C@@H](C)C(=O)N[C@@H](CCC(N)=O)C(=O)N[C@@H](CC(=O)O)C(=O)N[C@@H](Cc1ccccc1)C(=O)N[C@H](C(=O)N[C@@H](CCC(N)=O)C(=O)N[C@@H](Cc1c[nH]c2ccccc12)C(=O)N[C@@H](CC(C)C)C(=O)N[C@@H](CC(C)C)C(=O)N[C@@H](CCC(=O)O)C(=O)NCC(=O)NCC(=O)N1CCC[C@H]1C(=O)N[C@@H](CO)C(=O)N[C@@H](CO)C(=O)NCC(=O)N[C@@H](C)C(=O)N1CCC[C@H]1C(=O)N1CCC[C@H]1C(=O)N1CCC[C@H]1C(=O)N[C@@H](CO)C(N)=O)C(C)C)C(=O)O
B2: peptide of SEQ ID NO: 144 (peptide)
peptide: Ac-[dY]AEGTFTSDK([γGlu-Palmitoyl])SKYLDERAAQDFVQWLLEAGPSSGAPPPS-NH2
SMILES: CCCCCCCCCCCCCCCC(=O)N[C@@H](CCC(=O)NCCCC[C@H](NC(=O)[C@H](CC(=O)O)NC(=O)[C@H](CO)NC(=O)[C@@H](NC(=O)[C@H](Cc1ccccc1)NC(=O)[C@@H](NC(=O)CNC(=O)[C@H](CCC(=O)O)NC(=O)[C@H](C)NC(=O)[C@@H](Cc1ccc(O)cc1)NC(C)=O)[C@@H](C)O)[C@@H](C)O)C(=O)N[C@@H](CO)C(=O)N[C@@H](CCCCN)C(=O)N[C@@H](Cc1ccc(O)cc1)C(=O)N[C@@H](CC(C)C)C(=O)N[C@@H](CC(=O)O)C(=O)N[C@@H](CCC(=O)O)C(=O)N[C@@H](CCCNC(=N)N)C(=O)N[C@@H](C)C(=O)N[C@@H](C)C(=O)N[C@@H](CCC(N)=O)C(=O)N[C@@H](CC(=O)O)C(=O)N[C@@H](Cc1ccccc1)C(=O)N[C@H](C(=O)N[C@@H](CCC(N)=O)C(=O)N[C@@H](Cc1c[nH]c2ccccc12)C(=O)N[C@@H](CC(C)C)C(=O)N[C@@H](CC(C)C)C(=O)N[C@@H](CCC(=O)O)C(=O)N[C@@H](C)C(=O)NCC(=O)N1CCC[C@H]1C(=O)N[C@@H](CO)C(=O)N[C@@H](CO)C(=O)NCC(=O)N[C@@H](C)C(=O)N1CCC[C@H]1C(=O)N1CCC[C@H]1C(=O)N1CCC[C@H]1C(=O)N[C@@H](CO)C(N)=O)C(C)C)C(=O)O

glucagon receptor, sequence (P47871 26-477 limits assumed): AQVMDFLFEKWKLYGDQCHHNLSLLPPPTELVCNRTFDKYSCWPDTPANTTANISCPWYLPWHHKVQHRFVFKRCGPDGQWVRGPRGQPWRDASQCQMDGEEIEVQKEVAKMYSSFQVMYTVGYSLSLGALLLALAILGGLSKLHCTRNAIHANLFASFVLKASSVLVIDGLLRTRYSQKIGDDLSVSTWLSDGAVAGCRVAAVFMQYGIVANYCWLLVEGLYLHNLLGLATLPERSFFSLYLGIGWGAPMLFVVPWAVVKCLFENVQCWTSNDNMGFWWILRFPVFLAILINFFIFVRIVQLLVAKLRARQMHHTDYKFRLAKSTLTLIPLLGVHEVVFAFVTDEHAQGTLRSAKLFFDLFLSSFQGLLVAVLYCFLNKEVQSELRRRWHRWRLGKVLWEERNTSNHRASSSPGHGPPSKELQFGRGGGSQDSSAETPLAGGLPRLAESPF

The first assay addresses GLP-1 receptor (UniProt P43220 24-463, limits assumed). Description: cell-based or functional assay.
As a reminder, the EC50 is the concentration at which the effect is half-maximal. A low value points to higher potency in that assay. As to B1, the “EC50 at GLP-1 Receptor (cAMP luciferase reporter, HEK293)” value worked out at 0.002 nM.
On to [4‑HPA]AQGTFTSDK([γGlu-C16 acyl])SKYLDERAAQDFVQWLLEGGPSSGAPPPS-NH2 [peptide of SEQ ID NO: 156], for which it took 0.002 nM to reach a half-maximal effect (EC50 at GLP-1 Receptor (cAMP luciferase reporter, HEK293)).
On to B2, for which the response was half-maximal at 0.017 nM (EC50 at GLP-1 Receptor (cAMP luciferase reporter, HEK293)).
Take Ac-[dY]ALGTFTSDK([γGlu-Palmitoyl])SKYLDERAAQDFVQWLLEGGPSSGAPPPS-NH2 [peptide of SEQ ID NO: 142]: the midpoint of the response, the EC50 at GLP-1 Receptor (cAMP luciferase reporter, HEK293), lay at 0.005 nM. Against the preceding molecule, the EC50 at GLP-1 Receptor (cAMP luciferase reporter, HEK293) is about 3.4-fold lower.

Another assay addresses glucagon receptor (UniProt P47871 26-477, limits assumed). The assay is described as follows: cell-based or functional assay.
As for B1, the “EC50 at Glucagon Receptor (cAMP luciferase reporter, HEK293)” value was found to be 0.178 nM. This counts as sub-nanomolar.
On the same count and under the same terms, the result for [4‑HPA]AQGTFTSDK([γGlu-C16 acyl])SKYLDERAAQDFVQWLLEGGPSSGAPPPS-NH2 [peptide of SEQ ID NO: 156] reads 0.011 nM; that for B2, 1.3 nM; that for Ac-[dY]ALGTFTSDK([γGlu-Palmitoyl])SKYLDERAAQDFVQWLLEGGPSSGAPPPS-NH2 [peptide of SEQ ID NO: 142], 0.103 nM.

The target in a further assay is T1, GIP receptor. Description: cell-based or functional assay.
Turning to [4‑HPA]AQGTFTSDK([γGlu-C16 acyl])SKYLDERAAQDFVQWLLEGGPSSGAPPPS-NH2 [peptide of SEQ ID NO: 156], the “EC50 at GIP Receptor (cAMP luciferase reporter, HEK293)” value worked out at 0.042 nM. That is a picomolar value.
Take B2: the “EC50 at GIP Receptor (cAMP luciferase reporter, HEK293)” value was 0.003 nM.
Take Ac-[dY]ALGTFTSDK([γGlu-Palmitoyl])SKYLDERAAQDFVQWLLEGGPSSGAPPPS-NH2 [peptide of SEQ ID NO: 142]: the midpoint of the response, the EC50 at GIP Receptor (cAMP luciferase reporter, HEK293), lay at 0.002 nM.

These data come from patent publication US20180105569A1 (INDIANA UNIVERSITY RESEARCH AND TECHNOLOGY, published 2018).
